Usually EC50 stands for the midpoint of the concentration-response curve. The Kd is the free concentration of one partner at which half of the binding sites on the other are occupied at equilibrium, for simple one-to-one binding. Usually koff stands for the rate constant with which the complex falls apart. One may read the kon as the second-order rate constant of association.

Experiment [1] concerns the target T1, recombinant human IGF-1R-his (human, UniProt P08069 31-932).
T1 construct: Recombinant his-tagged protein; also called hIGF-1R-his; hIGF1R-his; not shown: his tag
In words: ELISA, coated hIGF-1R-his. The method, then:
The binding activity of the nanobody-Fc fusion proteins obtained after two rounds of mutant construction with the antigen proteins (recombinant human IGF-1R-His) was detected by an ELISA method: 2 μg/mL recombinant human IGF1R-His antigen proteins were added to a 96-well ELISA plate, at 30 μL/well, for coating overnight at 4° C. The plate was washed three times with PBST. PBS containing 5% skim milk powder was added for blocking at room temperature for 2 h. The plate was washed three times with PBST. The nanobody-Fc fusion proteins were serially diluted 3-fold, and the nanobody-Fc fusion proteins of different concentrations were added to each well at 30 μL/well and incubated at room temperature for 1 h. The plate was washed three times with PBST, and horseradish peroxidase-labeled anti-human Fc antibodies were added at 30 μL/well and incubated at room temperature for 50 min. The plate was washed three times with PBST. TMB substrate solution was added at 30 μL/well for color development in the dark for 1-5 min, 30 μL of 2 M hydrochloric acid was added to terminate the reaction, and the OD₄₅₀ was read using a microplate reader. Curve fitting was conducted and the EC₅₀ value was calculated using Graphpad Prism software.
A general note: ELISA stands for enzyme-linked immunosorbent assay.

The target in experiment [2] is T1, recombinant human IGF-1R-his. In words: SPR (BIAcore), hIGF-1R-his on CM5 chip, Test 1. The method, then: The affinity of the nanobody fusion proteins to recombinant human IGF-1R was detected using a BIAcore instrument. […] The flow rate was set to 10 μL/min. The chip activation time of a mixture of EDC and NHS was the default value of 420 s. The recombinant human IGF-1R-his was coupled to 800 RU on a CM5 chip under the preset coupling mode, and unbound activated groups were blocked with ethanolamine. Two-fold serially diluted nanobody-Fc fusion proteins (five concentrations of each fusion protein were detected) were injected sequentially at a flow rate of 50 μL/min at 25° C., with an association time of 120 s and a dissociation time of 600 s. A curve was fit with a 1:1 Langmuir binding model using the BIAcore T200 analysis software to determine kinetic constants such as the association rate constant, the dissociation rate constant, and the association dissociation constant.
On the technique in general: Surface plasmon resonance follows binding to a sensor surface in real time, without labels.

T1 sequence (P08069 31-932 limits assumed): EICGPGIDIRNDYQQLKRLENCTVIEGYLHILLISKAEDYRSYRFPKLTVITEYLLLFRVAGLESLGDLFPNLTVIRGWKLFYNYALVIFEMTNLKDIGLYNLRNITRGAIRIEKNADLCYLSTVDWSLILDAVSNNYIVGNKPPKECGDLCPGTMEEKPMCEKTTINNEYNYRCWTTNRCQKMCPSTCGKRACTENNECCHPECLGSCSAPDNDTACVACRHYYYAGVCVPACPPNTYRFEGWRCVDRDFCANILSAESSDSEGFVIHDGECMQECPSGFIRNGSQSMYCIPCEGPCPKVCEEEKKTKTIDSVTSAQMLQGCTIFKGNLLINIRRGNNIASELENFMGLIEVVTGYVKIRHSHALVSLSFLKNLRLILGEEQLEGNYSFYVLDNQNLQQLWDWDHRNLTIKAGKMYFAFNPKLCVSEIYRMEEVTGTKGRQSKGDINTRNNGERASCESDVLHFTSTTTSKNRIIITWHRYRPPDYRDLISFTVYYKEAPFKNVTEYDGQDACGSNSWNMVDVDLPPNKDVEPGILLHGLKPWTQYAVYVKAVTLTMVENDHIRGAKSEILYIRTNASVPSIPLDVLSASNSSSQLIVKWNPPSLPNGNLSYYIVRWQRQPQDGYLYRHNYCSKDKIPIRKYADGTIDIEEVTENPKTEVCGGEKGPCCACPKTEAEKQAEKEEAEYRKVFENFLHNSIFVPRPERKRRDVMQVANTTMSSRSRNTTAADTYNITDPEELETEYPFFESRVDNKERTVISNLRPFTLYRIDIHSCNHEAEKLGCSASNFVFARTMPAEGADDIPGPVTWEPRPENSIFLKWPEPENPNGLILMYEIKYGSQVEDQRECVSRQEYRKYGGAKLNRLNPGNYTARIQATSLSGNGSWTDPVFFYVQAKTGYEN

B1: 5115-H1-M3-Fc (Fc fusion)
chain: EVQLVESGGGLVQPGGSLRLSCAASGRTFSSFVMSWFRQAPGKEREFVSAISGSGSRARYADSVKGRFTISRDNSKNTLYLQMNSLRAEDTAVYYCAANPRRATPDLTQYAYWGQGTLVTVSS
notes: VHH-Fc; Fc not specified; not shown: Fc
As to B1, in experiment [1], the EC50 was found to be 1.22 ng/mL. Also, in experiment [2], the Kd came out at 1850 pM, the koff was 0.00207 s⁻¹ and the kon worked out at 1.12e+06 M⁻¹ s⁻¹.

B2: 5115-H4-M34-4-Fc (Fc fusion)
chain: EVQLVESGGGLVQPGGSLRLSCAASGGTFSSFVMAWFRQAPGKGLEFVSAISGFGSRARYADSVKGRFTISRDNSKNTLYLQMNSLRAEDTAVYYCAANPRRATPDLTQYAYWGQGTLVTVSS
notes: as for B1
Consider B2, for which the EC50 in experiment [1] is 6.24 ng/mL.

B3: 5115-H4-M34-5-Fc (Fc fusion)
chain: EVQLVESGGGLVQPGGSLRLSCAASMTTFSSFVMAWFRQAPGKGLEFVSAISGHGSRARYADSVKGRFTISRDNSKNTLYLQMNSLRAEDTAVYYCAANPRRATPDLTQYAYWGQGTLVTVSS
notes: as for B1
Turning to B3, in experiment [1], the EC50 turned out to be 2.15 ng/mL.

B4: 5115-H4-M3-Fc (Fc fusion)
chain: EVQLVESGGGLVQPGGSLRLSCAASGRTFSSFVMAWFRQAPGKGLEFVSAISGSGSRARYADSVKGRFTISRDNSKNTLYLQMNSLRAEDTAVYYCAANPRRATPDYTQYAYWGQGTLVTVSS
notes: as for B1
For B4, in experiment [1], the EC50 came to 330 pM.

B5: 5115-H4-M34-3-Fc (Fc fusion)
chain: EVQLVESGGGLVQPGGSLRLSCAASGGTFSSFVMAWFRQAPGKGLEFVSAISGSGSRARYADSVKGRFTISRDNSKNTLYLQMNSLRAEDTAVYYCAANPRRATPDLTQYKYWGQGTLVTVSS
notes: as for B1
As for B5, the concentration giving a half-maximal response (EC50) in experiment [1] is 3.64 ng/mL.

B6: 5115-H1-M35-Fc (Fc fusion)
chain: EVQLVESGGGLVQPGGSLRLSCAASGRTFSSFVMSWFRQAPGKEREFVSAISGSGSRALYADSVKGRFTISRDNSKNTLYLQMNSLRAEDTAVYYCAANPRRATPDLRQYAYWGQGTLVTVSS
notes: as for B1
Regarding B6, in experiment [1], the 50% effective concentration (EC50) was determined as 1.47 ng/mL.

B7: 5115-H4-M48-Fc (Fc fusion)
chain: EVQLVESGGGLVQPGDSLRLSCAASGRTFSRFVMSWFRQAPGKGLEFVSAISGSGSRAYYADSVKGRFTISRDNSKNTLYLQMNSLRAEDTAVYYCAANPRRATPDLRQYAYWGQGTLVTVSS
notes: as for B1
With B7, the EC50 in experiment [1] turned out to be 475 pM.

B8: 5115-H1-M40-Fc (Fc fusion)
chain: EVQLVESGGGLVQPGGSLRLSCAASGRTFSSFVMSWFRQAPGKEREFVSAISGSGSRQRYADSVKGRFTISRDNSKNTLYLQMNSLRAEDTAVYYCAANPRRATPDLRQYAYWGQGTLVTVSS
notes: as for B1
With B8, the 50% effective concentration (EC50) in experiment [1] amounted to 1.23 ng/mL.

B9: 5115-H4-M34-12-Fc (Fc fusion)
chain: EVQLVESGGGLVQPGGSLRLSCAASGRPFSSFVMAWFRQAPGKGLEFVSAISGSGSRARYADSVKGRFTISRDNSKNTLYLQMNSLRAEDTAVYYCAANPRYATPDLTQYAYWGQGTLVTVSS
notes: as for B1
With B9, in experiment [1], the EC50 turned out to be 3.33 ng/mL.

B10: 5115-H4-M34-9-Fc (Fc fusion)
chain: EVQLVESGGGLVQPGGSLRLSCAASGPAFSSFVMAWFRQAPGKGLEFVSAISGSGSRARYADSVKGRFTISRDNSKNTLYLQMNSLRAEDTAVYYCAANPRRATPDLTQYAYWGQGTLVTVSS
notes: as for B1
B10: the EC50 in experiment [1] is 4.05 ng/mL.

B11: 5115-H1-M10-Fc (Fc fusion)
chain: EVQLVESGGGLVQPGGSLRLSCAASGGTFSSFVMSWFRQAPGKEREFVSAISGSGSRAYYADSVKGRFTISRDNSKNTLYLQMNSLRAEDTAVYYCAANPRRATPGFTQYAYWGQGTLVTVSS
notes: as for B1
For B11, in experiment [1], the EC50 was determined as 1.7 ng/mL. Further, in experiment [2], the Kd was 1150 pM, the koff amounted to 0.00123 s⁻¹ and the association rate constant (kon) turned out to be 1.07e+06 M⁻¹ s⁻¹.

B12: 5115-H4-M34-15-Fc (Fc fusion)
chain: EVQLVESGGGLVQPGGSLRLSCAASGRTFSSLVMAWFRQAPGKGLEFVSAISGSGSRARYADSVKGRFTISRDNSKNTLYLQMNSLRAEDTAVYYCAANPRRATPDLTQYAYWGQGTLVTVSS
notes: as for B1
Turning to B12, in experiment [1], the EC50 turned out to be 2.25 ng/mL.

B13: 5115-H1-M36-Fc (Fc fusion)
chain: EVQLVESGGGLVQPGGSLRLSCAASGRTFPSFVMSWFRQAPGKEREFVSAISGSGSRAYYADSVKGRFTISRDNSKNTLYLQMNSLRAEDTAVYYCAANPRRATPDLRQYAYWGQGTLVTVSS
notes: as for B1
Take B13: the EC50 in experiment [1] came to 1.43 ng/mL.

B14: 5115-H4-M34-1-Fc (Fc fusion)
chain: EVQLVESGGGLVQPGGSLRLSCAASGRTFNRFVMAWFRQAPGKGLEFVSAISGSGQRARYADSVKGRFTISRDNSKNTLYLQMNSLRAEDTAVYYCAANPRRATPDLTQYAYWGQGTLVTVSS
notes: as for B1
As to B14, in experiment [1], the EC50 was 3.92 ng/mL.

B15: 5115-H4-M34-14-Fc (Fc fusion)
chain: EVQLVESGGGLVQPGGSLRLSCAASRGTFSSFVMAWFRQAPGKGLEFVSAISGSGKVARYADSVKGRFTISRDNSKNTLYLQMNSLRAEDTAVYYCAANPRRATPDLTQYAYWGQGTLVTVSS
notes: as for B1
Turning to B15, in experiment [1], the 50% effective concentration (EC50) came out at 3.28 ng/mL.

B16: 5115-H4-M41-Fc (Fc fusion)
chain: EVQLVESGGGLVQPGGSLRLSCAASGRTFSSFVMGWFRQAPGKGLEFVSAISGSGSRARYADSVKGRFTISRDNSKNTLYLQMNSLRAEDTAVYYCAANPRRATPDYTQYLYWGQGTLVTVSS
notes: as for B1
On to B16, for which, in experiment [1], the EC50 came to 175 pM.

B17: 5115-H4-M34-7-Fc (Fc fusion)
chain: EVQLVESGGGLVQPGGSLRLSCAASGRTFSSFVMAWFRQAPGKGLEFVSAISGSGRQARYADSVKGRFTISRDNSKNTLYLQMNSLRAEDTAVYYCAANPRRATPDLSRYAYWGQGTLVTVSS
notes: as for B1
In the case of B17, the EC50 in experiment [1] was 5.36 ng/mL.

B18: 5115-H4-M39-Fc (Fc fusion)
chain: EVQLVESGGGLVQPGGSLRLSCAASGRTFSSFVMSWFRQAPGKGLEFVSAISGSGSRSRYADSVKGRFTISRDNSKNTLYLQMNSLRAEDTAVYYCAANPRRATPDLRQYAYWGQGTLVTVSS
notes: as for B1
For the molecule B18, in experiment [1], the EC50 is 210 pM.

B19: 5115-H4-M34-8-Fc (Fc fusion)
chain: EVQLVESGGGLVQPGGSLRLSCAASGRTFSTFVMAWFRQAPGKGLEFVSAISGSGSRSRYADSVKGRFTISRDNSKNTLYLQMNSLRAEDTAVYYCAANPRRATPDLTQYAYWGQGTLVTVSS
notes: as for B1
In the case of B19, the EC50 in experiment [1] amounted to 3.79 ng/mL.

B20: 5115-H1-M17-Fc (Fc fusion)
chain: EVQLVESGGGLVQPGGSLRLSCAASGRTFSSFVMSWFRQAPGKEREFVSAISGSGSRSRYADSVKGRFTISRDNSKNTLYLQMNSLRAEDTAVYYCAANPRRATPDLIQYAYWGQGTLVTVSS
notes: as for B1
For B20, the EC50 in experiment [1] worked out at 1.84 ng/mL. In addition, in experiment [2], the dissociation constant (Kd) worked out at 101 pM, the koff amounted to 0.000465 s⁻¹ and the on-rate (kon) was found to be 4.62e+06 M⁻¹ s⁻¹.

B21: 5115-H4-M52-Fc (Fc fusion)
chain: EVQLVESGGGLVQPGGSLRLSCAASSRTFSSFVMSWFRQAPGKGLEFVSAISGSGSRANYADSVKGRFTISRDNSKNTLYLQMNSLRAEDTAVYYCAANPRRATPDLTQYAYWGQGTLVTVSS
notes: as for B1
Regarding B21, in experiment [1], the EC50 was found to be 183 pM.

B22: 5115-H1-M39-Fc (Fc fusion)
chain: EVQLVESGGGLVQPGGSLRLSCAASGRTFSSFVMSWFRQAPGKEREFVSAISGSGSRFRYADSVKGRFTISRDNSKNTLYLQMNSLRAEDTAVYYCAANPRRATPDLQQYAYWGQGTLVTVSS
notes: as for B1
As to B22, the EC50 in experiment [1] is 1.06 ng/mL.

B23: 5115-H4-M34-16-Fc (Fc fusion)
chain: EVQLVESGGGLVQPGGSLRLSCAASGRTFSSFVMGWFRQAPGKGLEFVSAISGFGSRARYADSVKGRFTISRDNSKNTLYLQMNSLRAEDTAVYYCAANPRRATPDLTQYAYWGQGTLVTVSS
notes: as for B1
With B23, in experiment [1], the EC50 amounted to 2.4 ng/mL.

B24: 5115-H4-M25-Fc (Fc fusion)
chain: EVQLVESGGGLVQPGGSLRLSCAASGVTFSSFVMSWFRQAPGKGLEFVSAISGSGSRALYADSVKGRFTISRDNSKNTLYLQMNSLRAEDTAVYYCAANPRRATPDLTQYAYWGQGTLVTVSS
notes: as for B1
Consider B24, for which, in experiment [1], the EC50 is 215 pM.

B25: 5115-H4-M28-Fc (Fc fusion)
chain: EVQLVESGGGLVQPGGSLRLSCAASGRTFSSFVMSWFRQAPGKGLEFVSAISGGGSRAYYADSVKGRFAISRDNSKNTLYLQMNSLRAEDTAVYYCAANPRRATPDLRQYAYWGQGTLVTVSS
notes: as for B1
As to B25, the EC50 in experiment [1] turned out to be 299 pM.

B26: 5115-H1-M34-Fc (Fc fusion)
chain: EVQLVESGGGLVQPGGSLRLSCAASGRTFSSFVMSWFRQAPGKEREFVSAISGSGSRMRYADSVKGRFTISRDNSKNTLYLQMNSLRAEDTAVYYCAANPRRATPDMRQYAYWGQGTLVTVSS
notes: as for B1
For the molecule B26, in experiment [1], the EC50 came to 2.05 ng/mL.

B27: 5115-H4-M34-11-Fc (Fc fusion)
chain: EVQLVESGGGLVQPGGSLRLSCAASTRTFSSFVMAWFRQAPGKGLEFVSAISGSGSRARYADSVKGRFTISRDNSKNTLYLQMNSLRAEDTAVYYCAANPRRATPDLTQYAYWGQGTLVTVSS
notes: as for B1
As to B27, the EC50 in experiment [1] stood at 2.33 ng/mL.

The record behind these values is patent US20250145723A1 (MINGHUI PHARMACEUTICAL HANGZHOU, published 2025).
